Measurements: patent US20120316071A1
Values belong to the substance of their own block, whether it stands above or below them.

How the values were obtained:
[1] = target: rHuman CD44/Fc Chimera, CF (R&D Systems Cat#3660-CD) (human) (UniProt P16070); assay: ECL multispot (MSD) binding assay, antigen spotted on plate, Fab 0.04 uM
[2] = target: rHuman IGF-1 sR, CF (R&D Systems Cat#391-GR) (human) (UniProt P08069); assay: as above
[3] = target: rHuman Notch-1/Fc Chimera, CF (R&D Systems Cat#3647-TK) (human) (UniProt P46531); assay: as above
[4] = target: rHuman P-Cadherin/Fc Chimera, CF (human) (UniProt P22223); assay: ECL Multispot (MSD) assay; antigen spotted on plate, Fab in solution
[5] = target: human DLL4, full-length, expressed on the surface of CHO cells (human) (UniProt Q9NR61); assay: cell-based or functional assay
[6] = target: rHuman HGF R/c-MET/Fc Chimera, CF (R&D Systems Cat#358-MT/CF) (human) (UniProt P08581); assay: ECL multispot (MSD) binding assay, antigen spotted on plate, Fab 0.04 uM
[7] = target: Recombinant Human DLL4 (R&D Systems Cat#1506-D4/CF) (human) (UniProt Q9NR61); assay: ECL multispot (MSD), antigen spotted, Fab in solution
[8] = target: rHuman HGF R/c-MET/Fc Chimera, CF (R&D Systems Cat#358-MT/CF) (human) (UniProt P08581); assay: as above
[9] = target: rHuman CD44/Fc Chimera, CF (R&D Systems Cat#3660-CD) (human) (UniProt P16070); assay: as above
[10] = target: rHuman P-Cadherin/Fc Chimera, CF (R&D Systems Cat#861-PC) (human) (UniProt P22223); assay: as above
[11] = target: rHuman Erythropoietin R/Fc Chimera, CF (R&D Systems Cat#963-ER) (human) (UniProt P19235); assay: as above
[12] = target: rHuman IGF-1 sR, CF (R&D Systems Cat#391-GR) (human) (UniProt P08069); assay: as above
[13] = target: rHuman Notch-1/Fc Chimera, CF (R&D Systems Cat#3647-TK) (human) (UniProt P46531); assay: as above
[14] = target: rHuman Erythropoietin R/Fc Chimera, CF (R&D Systems Cat#963-ER) (human) (UniProt P19235); assay: ECL multispot (MSD) binding assay, antigen spotted on plate, Fab 0.04 uM
[15] = target: rHuman P-Cadherin/Fc Chimera, CF (R&D Systems Cat#861-PC) (human) (UniProt P22223); assay: ECL multispot (MSD) binding assay, antigens spotted on plate, 20 nM Fab
[16] = target: rHuman Erythropoietin R/Fc Chimera, CF (R&D Systems Cat#963-ER) (human) (UniProt P19235); assay: as above

rHuman HGF R/c-MET/Fc Chimera, CF (R&D Systems Cat#358-MT/CF) (human), sequence (P08581 25-932, change not shown): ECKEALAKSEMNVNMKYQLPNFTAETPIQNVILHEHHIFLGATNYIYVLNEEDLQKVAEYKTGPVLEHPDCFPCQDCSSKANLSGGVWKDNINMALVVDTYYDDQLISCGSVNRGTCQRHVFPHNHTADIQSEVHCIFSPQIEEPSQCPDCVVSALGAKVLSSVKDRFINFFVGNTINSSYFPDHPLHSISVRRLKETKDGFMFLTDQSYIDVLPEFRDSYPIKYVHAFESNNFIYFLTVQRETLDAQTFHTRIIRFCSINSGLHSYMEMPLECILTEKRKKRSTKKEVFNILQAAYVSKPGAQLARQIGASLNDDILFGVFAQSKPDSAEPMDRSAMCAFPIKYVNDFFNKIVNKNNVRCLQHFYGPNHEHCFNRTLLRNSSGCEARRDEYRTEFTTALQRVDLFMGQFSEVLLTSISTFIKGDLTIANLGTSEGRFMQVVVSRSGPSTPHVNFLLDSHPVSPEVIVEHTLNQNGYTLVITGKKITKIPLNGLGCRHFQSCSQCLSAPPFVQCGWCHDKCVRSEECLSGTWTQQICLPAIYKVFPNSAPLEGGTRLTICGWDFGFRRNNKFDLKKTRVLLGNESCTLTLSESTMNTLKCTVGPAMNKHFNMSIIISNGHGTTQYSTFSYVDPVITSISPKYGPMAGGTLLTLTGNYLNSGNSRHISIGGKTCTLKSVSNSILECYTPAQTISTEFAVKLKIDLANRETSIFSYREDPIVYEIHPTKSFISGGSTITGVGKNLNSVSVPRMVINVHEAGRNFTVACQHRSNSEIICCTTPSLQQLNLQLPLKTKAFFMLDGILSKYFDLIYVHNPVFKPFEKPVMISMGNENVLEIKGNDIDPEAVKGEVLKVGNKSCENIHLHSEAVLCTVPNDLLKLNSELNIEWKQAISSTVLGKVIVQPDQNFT
rHuman Erythropoietin R/Fc Chimera, CF (R&D Systems Cat#963-ER) (human), sequence (P19235 25-250, change not shown): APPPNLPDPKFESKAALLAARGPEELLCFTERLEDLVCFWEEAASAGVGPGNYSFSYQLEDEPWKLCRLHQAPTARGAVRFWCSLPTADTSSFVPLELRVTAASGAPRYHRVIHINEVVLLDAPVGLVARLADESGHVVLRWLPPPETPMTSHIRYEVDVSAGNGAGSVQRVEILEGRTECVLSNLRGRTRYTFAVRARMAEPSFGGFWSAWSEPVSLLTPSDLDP

ECL signal [1]: 695 | ECL signal [2]: 959 | ECL signal [3]: 693
Substance: Fab VH5-51_IGHD5-18*01>3_IGHJ4*01 G100K/G104T (H:KT) & V3-4_IGLJ1*01 L92A

ECL signal [4]: 809
Substance: Fab VH1-46_IGHD6-6*01_IGHJ1*01 S102A/S103P/S104F/H111F (APFF) & L6_IGKJ1*01 S28Q

Notch1 luciferase reporter luminescence, T98G reporter cells + CHO-DLL4, 0.8 nM IgG, replicate 1 [5]: 4440 | Notch1 luciferase reporter luminescence, T98G reporter cells + CHO-DLL4, 0.8 nM IgG, replicate 2 [5]: 4520 | Notch1 luciferase reporter luminescence, T98G reporter cells + CHO-DLL4, 0.8 nM IgG, replicate 3 [5]: 3900 | Notch1 luciferase reporter luminescence, T98G reporter cells + CHO-DLL4, 0.8 nM IgG, replicate 4 [5]: 3980 | Notch1 luciferase reporter luminescence, T98G reporter cells + CHO-DLL4, 4 nM IgG, replicate 1 [5]: 4260 | Notch1 luciferase reporter luminescence, T98G reporter cells + CHO-DLL4, 4 nM IgG, replicate 2 [5]: 3860 | Notch1 luciferase reporter luminescence, T98G reporter cells + CHO-DLL4, 4 nM IgG, replicate 3 [5]: 3950 | Notch1 luciferase reporter luminescence, T98G reporter cells + CHO-DLL4, 4 nM IgG, replicate 4 [5]: 3760 | Notch1 luciferase reporter luminescence, T98G reporter cells + CHO-DLL4, 20 nM IgG, replicate 1 [5]: 1250 | Notch1 luciferase reporter luminescence, T98G reporter cells + CHO-DLL4, 20 nM IgG, replicate 2 [5]: 1270 | Notch1 luciferase reporter luminescence, T98G reporter cells + CHO-DLL4, 20 nM IgG, replicate 3 [5]: 1170 | Notch1 luciferase reporter luminescence, T98G reporter cells + CHO-DLL4, 20 nM IgG, replicate 4 [5]: 1190 | Notch1 luciferase reporter luminescence, T98G reporter cells + CHO-DLL4, 100 nM IgG, replicate 1 [5]: 757 | Notch1 luciferase reporter luminescence, T98G reporter cells + CHO-DLL4, 100 nM IgG, replicate 2 [5]: 807 | Notch1 luciferase reporter luminescence, T98G reporter cells + CHO-DLL4, 100 nM IgG, replicate 3 [5]: 678 | Notch1 luciferase reporter luminescence, T98G reporter cells + CHO-DLL4, 100 nM IgG, replicate 4 [5]: 688
Substance: IgG of VH1-46_IGHD6-6*01_IGHJ1*01 S102A/S103P/S104F/H111F I51V/N52L/S54T/G56H (APFF VLTH) & L6_IGKJ1*01 S28N/S30D/S31H S52L/A55S (NDH LS) (antibody)

ECL signal [6]: 1130 | ECL signal [2]: 1050
Substance: Fab VH5-51_IGHD5-18*01>3_IGHJ4*01 G100K/G104T (H:KT) & V3-4_IGLJ1*01 Y93A

ECL signal/blank ratio [7]: 1 | ECL signal/blank ratio [8]: 1.1 | ECL signal/blank ratio [9]: 1.1 | ECL signal/blank ratio [10]: 1.4 | ECL signal/blank ratio [11]: 0.9 | ECL signal/blank ratio [12]: 0.8 | ECL signal/blank ratio [13]: 1.1
Substance: Fab VH3-23_IGHD3-10*01>3_IGHJ6*01 Y112P & O12_IGKJ1*01

ECL signal [6]: 909 | ECL signal [2]: 943
Substance: Fab VH5-51_IGHD5-18*01>3_IGHJ4*01 G100K/G104T (H:KT) & V3-4_IGLJ1*01 S99A

ECL signal [2]: 1030
Substance: Fab VH5-51_IGHD5-18*01>3_IGHJ4*01 G100K/G104T (H:KT) & V3-4_IGLJ1*01 V91A

ECL signal [6]: 999 | ECL signal [2]: 1090 | ECL signal [3]: 707
Substance: Fab VH5-51_IGHD5-18*01>3_IGHJ4*01 G100K/G104T (H:KT) & V3-4_IGLJ1*01 G95A

ECL signal [4]: 676
Substance: Fab VH1-46_IGHD6-6*01_IGHJ1*01 S102A/S103P/S104F/H111F (APFF) & L6_IGKJ1*01 S28T

ECL signal [6]: 1110 | ECL signal [1]: 642 | ECL signal [14]: 528 | ECL signal [2]: 1030 | ECL signal [3]: 660
Substance: Fab VH5-51_IGHD5-18*01>3_IGHJ4*01 G100K/G104T (H:KT) & V3-4_IGLJ1*01 G97A

ECL signal [6]: 1150 | ECL signal [2]: 1090
Substance: Fab VH5-51_IGHD5-18*01>3_IGHJ4*01 G100K/G104T (H:KT) & V3-4_IGLJ1*01 M94A

ECL multispot signal (ratio to blank; column not labelled) [15]: 2.9 | ECL multispot signal (ratio to blank; column not labelled) [16]: 3.7
Substance: Fab VH3-23_IGHD2-21*01>3_IGHJ6*01 H100E/S108P/Y113G Y110H & V2-13_IGLJ2*01
